From the supplement of paper PMC9112550, “Optimization of the antimicrobial peptide Bac7 by deep mutational scanning” (BMC Biology, 2022)

tested on: Escherichia coli TOP10; experiment: shrunken log2 fold change of peptide-encoding DNA abundance (4.5 h post-induction vs induction); higher = less antimicrobial activity (less host growth inhibition); details: time post-induction: 4.5 h; library: site-saturation at positions 5, 18, 19, 20
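Also: peptides expressed intracellularly from a pBAD plasmid library in pooled LB shake-flask culture, induced with 0.3% L-arabinose, DNA abundance read by NGS, three biological replicates, DESeq2 with apeglm shrinkage.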

Going from RRIRKRPPRLPRPRPRPGMEPRP to RRIRHRPPRLPRPRPRPDITPRP, the “shrunken log2 fold change” value falls from 0.0527 to -0.212.

First: RRIRYRPPRLPRPRPRPMIRPRP
Second: RRIRHRPPRLPRPRPRPGLHPRP
The “shrunken log2 fold change” value of the first is higher: -0.0021 for the first, -0.308 for the second.

RRIRKRPPRLPRPRPRPYFQPRP and RRIRCRPPRLPRPRPRPDLIPRP are within 0.2 log units of each other in “shrunken log2 fold change” value: -0.265 for the first, -0.109 for the second.

Going from RRIRWRPPRLPRPRPRPMYSPRP to RRIRLRPPRLPRPRPRPLSQPRP, the “shrunken log2 fold change” value rises from -0.612 to 0.00591.

Going from RRIRWRPPRLPRPRPRPFKWPRP to RRIRMRPPRLPRPRPRPQRQPRP, the “shrunken log2 fold change” value rises from -0.223 to 0.0595.

Compared with RRIRVRPPRLPRPRPRPVLSPRP, RRIRIRPPRLPRPRPRPDCKPRP is lower in “shrunken log2 fold change” value: -0.11 for the first, -0.477 for the second.

First: RRIRFRPPRLPRPRPRPKNQPRP
Second: RRIRIRPPRLPRPRPRPFQLPRP
The “shrunken log2 fold change” value of the first is lower: -0.195 for the first, 0.0333 for the second.

RRIRNRPPRLPRPRPRPDCIPRP and RRIRLRPPRLPRPRPRPFPHPRP are within 0.2 log units of each other in “shrunken log2 fold change” value: -0.194 for the first, -0.0537 for the second.

Compared with RRIRKRPPRLPRPRPRPGVFPRP, RRIRYRPPRLPRPRPRPEDHPRP is lower in “shrunken log2 fold change” value: 0.417 for the first, -0.581 for the second.

RRIRPRPPRLPRPRPRPRYRPRP and RRIRARPPRLPRPRPRPFSEPRP are within 0.2 log units of each other in “shrunken log2 fold change” value: 0.0725 for the first, -0.122 for the second.

RRIRARPPRLPRPRPRPCKVPRP and RRIRCRPPRLPRPRPRPAQKPRP are within 0.2 log units of each other in “shrunken log2 fold change” value: -0.164 for the first, -0.118 for the second.

RRIRERPPRLPRPRPRPGMQPRP and RRIRHRPPRLPRPRPRPSFVPRP are within 0.2 log units of each other in “shrunken log2 fold change” value: -0.328 for the first, -0.38 for the second.

Compared with RRIRMRPPRLPRPRPRPMGNPRP, RRIRCRPPRLPRPRPRPHCTPRP is lower in “shrunken log2 fold change” value: 0.451 for the first, -0.88 for the second.

Compared with RRIRYRPPRLPRPRPRPYVHPRP, RRIRYRPPRLPRPRPRPNKPPRP is higher in “shrunken log2 fold change” value: -1.05 for the first, -0.18 for the second.

Compared with RRIRWRPPRLPRPRPRPHICPRP, RRIRCRPPRLPRPRPRPSDSPRP is lower in “shrunken log2 fold change” value: 0.00277 for the first, -0.34 for the second.

RRIRERPPRLPRPRPRPIEKPRP and RRIRHRPPRLPRPRPRPCIVPRP are within 0.2 log units of each other in “shrunken log2 fold change” value: 0.00242 for the first, -0.0379 for the second.

Compared with RRIRIRPPRLPRPRPRPHNVPRP, RRIRNRPPRLPRPRPRPHQPPRP is higher in “shrunken log2 fold change” value: -0.414 for the first, 0.0075 for the second.

RRIRARPPRLPRPRPRPYGVPRP and RRIRKRPPRLPRPRPRPWACPRP are within 0.2 log units of each other in “shrunken log2 fold change” value: -0.12 for the first, 0.0099 for the second.

Compared with RRIRFRPPRLPRPRPRPSVRPRP, RRIRRRPPRLPRPRPRPNIQPRP is higher in “shrunken log2 fold change” value: -0.302 for the first, 0.0304 for the second.

RRIRTRPPRLPRPRPRPIVYPRP and RRIRCRPPRLPRPRPRPYDFPRP are within 0.2 log units of each other in “shrunken log2 fold change” value: -0.85 for the first, -0.894 for the second.

First: RRIRCRPPRLPRPRPRPNPHPRP
Second: RRIRPRPPRLPRPRPRPTSVPRP
The “shrunken log2 fold change” value of the first is lower: -0.158 for the first, 0.181 for the second.

Going from RRIRWRPPRLPRPRPRPMQQPRP to RRIRSRPPRLPRPRPRPEACPRP, the “shrunken log2 fold change” value rises from 0.056 to 1.03.

RRIRCRPPRLPRPRPRPWFGPRP and RRIRDRPPRLPRPRPRPSNYPRP are within 0.2 log units of each other in “shrunken log2 fold change” value: -0.374 for the first, -0.29 for the second.

Compared with RRIRWRPPRLPRPRPRPSGEPRP, RRIRNRPPRLPRPRPRPQTTPRP is lower in “shrunken log2 fold change” value: 0.138 for the first, -0.149 for the second.

Going from RRIRHRPPRLPRPRPRPLNHPRP to RRIRARPPRLPRPRPRPPCMPRP, the “shrunken log2 fold change” value rises from -0.785 to 0.099.

Going from RRIRYRPPRLPRPRPRPGSIPRP to RRIRKRPPRLPRPRPRPACGPRP, the “shrunken log2 fold change” value rises from -0.606 to 0.845.

RRIRPRPPRLPRPRPRPSMAPRP and RRIRRRPPRLPRPRPRPKDMPRP are within 0.2 log units of each other in “shrunken log2 fold change” value: -0.0637 for the first, -0.0599 for the second.

Going from RRIRIRPPRLPRPRPRPNGHPRP to RRIRPRPPRLPRPRPRPFTMPRP, the “shrunken log2 fold change” value rises from -0.469 to 1.43.

RRIRWRPPRLPRPRPRPRNRPRP and RRIRRRPPRLPRPRPRPDTFPRP are within 0.2 log units of each other in “shrunken log2 fold change” value: -0.0206 for the first, 0.025 for the second.

RRIRKRPPRLPRPRPRPSFNPRP and RRIRVRPPRLPRPRPRPDEWPRP are within 0.2 log units of each other in “shrunken log2 fold change” value: 0.0137 for the first, 0.0467 for the second.

Compared with RRIRIRPPRLPRPRPRPCDYPRP, RRIRIRPPRLPRPRPRPFLRPRP is higher in “shrunken log2 fold change” value: -1.01 for the first, -0.2 for the second.

Compared with RRIRARPPRLPRPRPRPLNYPRP, RRIRYRPPRLPRPRPRPNHSPRP is lower in “shrunken log2 fold change” value: 0.0659 for the first, -0.498 for the second.

RRIRLRPPRLPRPRPRPTVAPRP and RRIRQRPPRLPRPRPRPSAHPRP are within 0.2 log units of each other in “shrunken log2 fold change” value: 0.0307 for the first, -0.075 for the second.

RRIRQRPPRLPRPRPRPDWVPRP and RRIRQRPPRLPRPRPRPIPQPRP are within 0.2 log units of each other in “shrunken log2 fold change” value: 0.116 for the first, -0.0321 for the second.

Going from RRIRVRPPRLPRPRPRPFYLPRP to RRIRKRPPRLPRPRPRPRYHPRP, the “shrunken log2 fold change” value rises from -0.449 to -0.17.

Going from RRIRERPPRLPRPRPRPIQCPRP to RRIRFRPPRLPRPRPRPNRHPRP, the “shrunken log2 fold change” value falls from 0.0885 to -0.874.

Going from RRIRARPPRLPRPRPRPNQCPRP to RRIRKRPPRLPRPRPRPDITPRP, the “shrunken log2 fold change” value rises from -0.176 to 2.24.

RRIRGRPPRLPRPRPRPYPCPRP and RRIRWRPPRLPRPRPRPQWDPRP are within 0.2 log units of each other in “shrunken log2 fold change” value: -0.0571 for the first, -0.0065 for the second.

RRIRPRPPRLPRPRPRPSTMPRP and RRIRCRPPRLPRPRPRPHCIPRP are within 0.2 log units of each other in “shrunken log2 fold change” value: -0.297 for the first, -0.468 for the second.

RRIRIRPPRLPRPRPRPFKNPRP and RRIRIRPPRLPRPRPRPMKSPRP are within 0.2 log units of each other in “shrunken log2 fold change” value: -0.188 for the first, -0.161 for the second.

Compared with RRIRARPPRLPRPRPRPVLDPRP, RRIRLRPPRLPRPRPRPVCNPRP is lower in “shrunken log2 fold change” value: 0.185 for the first, -0.0299 for the second.

Going from RRIRPRPPRLPRPRPRPWLWPRP to RRIRGRPPRLPRPRPRPQRPPRP, the “shrunken log2 fold change” value rises from 0.0404 to 0.406.

RRIRPRPPRLPRPRPRPTGSPRP and RRIRDRPPRLPRPRPRPPFKPRP are within 0.2 log units of each other in “shrunken log2 fold change” value: 0.146 for the first, 0.18 for the second.

Compared with RRIRSRPPRLPRPRPRPRKPPRP, RRIRARPPRLPRPRPRPPLNPRP is higher in “shrunken log2 fold change” value: 0.0197 for the first, 0.612 for the second.

Compared with RRIRDRPPRLPRPRPRPYRMPRP, RRIRTRPPRLPRPRPRPCQPPRP is lower in “shrunken log2 fold change” value: -0.0515 for the first, -0.387 for the second.

Compared with RRIRLRPPRLPRPRPRPFECPRP, RRIRWRPPRLPRPRPRPRSSPRP is higher in “shrunken log2 fold change” value: -0.345 for the first, 0.246 for the second.

RRIRPRPPRLPRPRPRPCTAPRP and RRIRHRPPRLPRPRPRPNAYPRP are within 0.2 log units of each other in “shrunken log2 fold change” value: -0.109 for the first, -0.219 for the second.

RRIRWRPPRLPRPRPRPMPVPRP and RRIRGRPPRLPRPRPRPIMWPRP are within 0.2 log units of each other in “shrunken log2 fold change” value: 0.346 for the first, 0.39 for the second.

Compared with RRIRMRPPRLPRPRPRPGDRPRP, RRIRMRPPRLPRPRPRPISCPRP is lower in “shrunken log2 fold change” value: 0.786 for the first, -0.0229 for the second.

First: RRIRRRPPRLPRPRPRPEWNPRP
Second: RRIRSRPPRLPRPRPRPNQYPRP
The “shrunken log2 fold change” value of the first is higher: 0.471 for the first, 0.2 for the second.

First: RRIRVRPPRLPRPRPRPAPEPRP
Second: RRIRWRPPRLPRPRPRPCPSPRP
The “shrunken log2 fold change” value of the first is higher: 0.514 for the first, 0.0767 for the second.

Going from RRIRCRPPRLPRPRPRPNGYPRP to RRIRTRPPRLPRPRPRPVFNPRP, the “shrunken log2 fold change” value falls from -0.122 to -0.65.

RRIRSRPPRLPRPRPRPCQNPRP and RRIRVRPPRLPRPRPRPVRNPRP are within 0.2 log units of each other in “shrunken log2 fold change” value: 0.0167 for the first, 0.105 for the second.

RRIRNRPPRLPRPRPRPVARPRP and RRIRARPPRLPRPRPRPRNDPRP are within 0.2 log units of each other in “shrunken log2 fold change” value: 0.23 for the first, 0.0481 for the second.

In the case of RRIRMRPPRLPRPRPRPIQAPRP, the “shrunken log2 fold change” value is reported as 0.295.
